According to patent US20200247886A1 (ZLIP, published 2020):

Tests used:
[1] = target: T1, human CD47 expressed on cells (CD47 expressing CHO cells, Jurkat, HL60, DLD1, Raji) (human, UniProt Q08722 19-292); experiment: flow cytometry on DLD1 cells, IgG, MFI
T1 construct: also called CHO-CD47; IAP

[2] = target: T1, human CD47 expressed on cells (CD47 …); experiment: flow cytometry on DLD1 cells, IgG, frequency
[3] = target: T1, human CD47 expressed on cells (CD47 …); experiment: flow cytometry on human platelets, donor 2, MFI
[4] = target: T1, human CD47 expressed on cells (CD47 …); experiment: IC50 as grade, SIRPα blocking on Raji cells; legend +++: <1 nM
[5] = target: T1, human CD47 expressed on cells (CD47 …); experiment: flow cytometry on CD47 expressing CHO cells, MFI (FL-4)
[6] = target: T1, human CD47 expressed on cells (CD47 …); experiment: flow cytometry on human red blood cells, donor 1, MFI
[7] = target: T1, human CD47 expressed on cells (CD47 …); experiment: flow cytometry on human red blood cells, donor 2, MFI
[8] = target: T1, human CD47 expressed on cells (CD47 …); experiment: flow cytometry SIRP-alpha blocking assay on Raji cells, MFI
[9] = target: T1, human CD47 expressed on cells (CD47 …); experiment: flow cytometry blocking assay on Raji cells, SIRPα is the blocked ligand, MFI
[10] = target: T1, human CD47 expressed on cells (CD47 …); experiment: as above; remark: listed apart in the source
[11] = target: T1, human CD47 expressed on cells (CD47 …); experiment: IC50 as grade, SIRPα blocking on Raji cells (second part of the table); legend +++: <1 nM
[12] = target: T2, His-tagged CD47 (Homo sapiens (Human), UniProt Q08722 19-139, limits assumed); experiment: IC50 (nM) MFI as grade, blocking His-tagged CD47 binding to SIRPα-CHO cells; legend +: >2.7 nM
T2 construct: not shown: His tag

[13] = target: T1, human CD47 expressed on cells (CD47 …); experiment: IC50 (nM) MFI as grade, blocking biotinylated SIRPa-Fc binding to DLD1 cells; legend +++: <1 nM
[14] = target: T2, His-tagged CD47; experiment: IC50 (nM) Frequency as grade, blocking His-tagged CD47 binding to SIRPα-CHO cells; legend +: >2.7 nM
[15] = target: T1, human CD47 expressed on cells (CD47 …); experiment: IC50 (nM) Frequency as grade, blocking biotinylated SIRPa-Fc binding to DLD1 cells; legend ++: >1 nM and <20 nM
[16] = target: T1, human CD47 expressed on cells (CD47 …); experiment: flow cytometry blocking assay: 100 nM biotinylated SIRPa-Fc (blocked ligand) on DLD1 cells expressing CD47, MFI
[17] = target: T1, human CD47 expressed on cells (CD47 …); experiment: flow cytometry blocking assay: 100 nM biotinylated SIRPa-Fc (blocked ligand) on DLD1 cells expressing CD47, frequency
[18] = target: T3, biotin labelled polyhistidine tagged CD47 protein (Novoprotein, Cat#321) (human, UniProt Q08722 19-139, biotin labelled (site not stated)); experiment: flow cytometry blocking assay: antibody mixed with biotinylated human CD47 protein; blocked ligand SIRPα on cells; binding percentage
T3 construct: Bought protein; also called biotinylated CD47; biotinylated human CD47 protein; not shown: polyhistidine tag

[19] = target: T2, His-tagged CD47; experiment: flow cytometry blocking assay: His-tagged CD47 with Fab on SIRPα-expressing CHO cells (SIRPα is the blocked ligand), anti-His-APC, MFI
[20] = target: T2, His-tagged CD47; experiment: flow cytometry blocking assay: His-tagged CD47 with Fab on SIRPα-expressing CHO cells (SIRPα is the blocked ligand), anti-His-APC, frequency
[21] = target: T4, CD47 protein (construct not stated; SPR antigen, CD47 coated ELISA plates) (Homo sapiens (Human), UniProt Q08722 19-139, limits assumed); experiment: SPR (Biacore T100), affinity (nM) as grade; legend -: >40 nM
T4 construct: also called the antigen

[22] = target: T1, human CD47 expressed on cells (CD47 …); experiment: EC50 (nM) as grade, binding on Jurkat cells; legend +++: >0.05 nM and <1 nM
[23] = target: T1, human CD47 expressed on cells (CD47 …); experiment: EC50 (nM) as grade, binding on CHO-CD47 cells; legend +++: >0.05 nM and <1 nM
[24] = target: T5, CHO/mCD47-GFP (mouse, UniProt Q61735); experiment: flow cytometry on CHO cells expressing mouse CD47-GFP, binding percentage
T5 construct: on the cell surface; also called mouse CD47 expressed on CHO cells; CHO cell expressing mouse CD47
T5 sequence (receptor, looked up): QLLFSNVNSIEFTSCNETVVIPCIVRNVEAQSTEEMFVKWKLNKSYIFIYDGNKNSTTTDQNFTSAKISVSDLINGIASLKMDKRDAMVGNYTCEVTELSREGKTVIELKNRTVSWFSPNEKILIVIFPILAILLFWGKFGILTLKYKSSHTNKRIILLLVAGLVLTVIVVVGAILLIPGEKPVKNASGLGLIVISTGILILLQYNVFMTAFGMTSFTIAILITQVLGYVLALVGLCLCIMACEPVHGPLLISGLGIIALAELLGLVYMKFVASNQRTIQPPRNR

[25] = target: T1, human CD47 expressed on cells (CD47 …); experiment: flow cytometry on human red blood cells, donor 2, MFI; EC50 (nM) table beside the legend
[26] = target: T6, human CD47-Fc protein (Novoprotein, Cat#CG18) (human, UniProt Q08722 19-139); experiment: IC50 (nM) as grade, blocking of soluble CD47 binding to SIRPα-expressing CHO cells; legend ++: >1 nM and <10 nM
T6 construct: Bought protein; also called CD47-hFc; hCD47-hFc fusion protein; not shown: human IgG Fc of the bought fusion protein

[27] = target: T1, human CD47 expressed on cells (CD47 …); experiment: EC50 (nM) as grade, binding on Jurkat cells; legend ++++: <0.05 nM
[28] = target: T1, human CD47 expressed on cells (CD47 …); experiment: EC50 (nM) as grade, binding on CHO-CD47 cells; legend ++++: <0.05 nM
[29] = target: T4, CD47 protein (construct not stated; SPR …); experiment: SPR (Biacore T100), affinity (nM) as grade; legend +: >10 nM and <40 nM
[30] = target: T6, human CD47-Fc protein (Novoprotein, …); experiment: IC50 (nM) as grade, neutralizing ELISA, CD47-hFc on SIRPα coated plate; legend ++: >15 nM and <20 nM
[31] = target: T6, human CD47-Fc protein (Novoprotein, …); experiment: IC50 (nM) as grade, neutralizing ELISA, CD47-hFc on SIRPα coated plate; legend +++: >8 nM and <15 nM
[32] = target: T6, human CD47-Fc protein (Novoprotein, …); experiment: IC50 (nM) as grade, blocking of soluble CD47 binding to SIRPα-expressing CHO cells; legend +++: >0.05 nM and <1 nM

B1: Positive 3 (analogue antibody) (antibody, V domains shown)
VH: QMQLVQSGAEVKKTGSSVKVSCKASGFNIKDYYLHWVRQAPGQALEWMGWIDPDQGDTEYAQKFQDRVTITRDRSMSTAYMELSSLRSEDTAMYYCNAAYGSSSYPMDYWGQGTTVTV
VL: NIQMTQSPSAMSASVGDRVTITCKASQDIHRYLSWFQQKPGKVPKHLIYRANRLVSGVPSRFSGSGSGTEFTLTISSLQPEDFATYYCLQYDEFPYTFGGGTKVEIK
For B1, the “EC50 (read off the curve)” value [1] was roughly 0.6 nM, the “EC50 (read off the curve)” value [2] was roughly 0.07 nM and the “EC50 (read off the curve)” value [3] was roughly 0.6 nM. For the same binder, the IC50 [4] was less than 1 nM, the “EC50 (read off the curve)” value [5] was roughly 1 nM and the “EC50 (read off the curve)” value [6] was roughly 1 nM. For the same binder, the “EC50 (read off the curve)” value [7] was roughly 1 nM, the “IC50 (read off the curve)” value [8] was roughly 0.6 nM and the “IC50 (read off the curve)” value [9] was roughly 0.6 nM. For the same binder, the “IC50 (read off the curve)” value [10] was roughly 0.9 nM, the IC50 [11] was less than 1 nM and the IC50 [12] was greater than 2.7 nM. For the same binder, the IC50 [13] was less than 1 nM, the IC50 [14] was greater than 2.7 nM and the IC50 [15] was 1 to 20 nM. For the same binder, the “IC50 (read off the curve)” value [16] was roughly 0.3 nM, the “IC50 (read off the curve)” value [17] was roughly 1 nM and the “IC50 (read off the curve)” value [18] was roughly 1 nM. The “IC50 (read off the curve)” value [19] was roughly 3 nM and the “IC50 (read off the curve)” value [20] was roughly 3 nM.

B2: ABU1 (antibody, V domains shown)
VH: EVKLVESGGGLVQPGGSRKLSCAASGFTFSDYGMAWVRQAPGKGPECVAFISNLAKRIYYVDTVTGRFTISRENAKNTLYLEMSSLRSEDTAMYYCTRAYRYALDYWGQGTTLTVSS
VL: QIVLTQSPAIMSASPGEKVTMTCSASSSVSYMNWYQQKSGTSPKRWIYDTSKLASGVPARFSGSGSGTSYSLTISSMEAEDAATYYCQQWNSNPPTFGTGTKLELK
notes: Murine hybridoma monoclonal antibody
With B2 the Kd [21] was greater than 40 nM, the EC50 [22] was 0.05 to 1 nM and the EC50 [23] was 0.05 to 1 nM. The binding result [24] was “no binding (tested: about 0.4 ug/ml)”, the EC50 [25] was 0.12 nM and the IC50 [26] was 1 to 10 nM.

B3: ABU3 (antibody, V domains shown)
VH: EVQLQQSGAELVKPGASVKLSCTASGFTIKDTYMHWVKQRPEQGLEWIGRIDPAKDNTKYDPKFQGKATITLDTSSNIAYLQLSSLTSEDTAVYFCARGHYGSSYVVYWGQGTLVTVSA
VL: NILMTQSPKSMSMSVGERVTLSCKASENVGTYVSWYQQKPDQSPKLLIYGASNRYTGVPDRFTGSGSATDFTLTISSVQAEDLADYHCGQSYSYPLTFGAGTKLELK
notes: as for B2
B3 was tested, and the EC50 [27] was less than 0.05 nM, the EC50 [28] was less than 0.05 nM and the “Affinity by SPR” value [29] was 10 to 40 nM. For the same binder, the binding result [24] was “no binding (tested: about 0.4 ug/ml)”, the EC50 [25] was 1.47 nM and the IC50 [30] was 15 to 20 nM. The IC50 [26] was 1 to 10 nM.

B4: ABU4 (antibody, V domains shown)
VH: QVQLQQSGPQLVRPGASVKISCKTSGYSFTNYWMQWVKQRPGQGLEWIGMIDPSDSESRLNQKFKDKATLTVDKSSSTAYMQLSSPTFEDSAVYYCARRGSPMITSFAYWGQGTLVTVSA
VL: DVQITQSPSFLAASPGETITINCRASKNIGKYLAWFQEKPGKTNKLLIYSGSTLQSGIPSRFSGSGSGTDFTLTISSLEPEDFAIYYCQQHNEYPYTFGGGTKLEIK
notes: as for B2
With B4 the EC50 [28] was less than 0.05 nM, the “Affinity by SPR” value [29] was 10 to 40 nM and the EC50 [22] was 0.05 to 1 nM. For the same binder, the binding result [24] was “no binding (tested: about 0.4 ug/ml)”, the EC50 [25] was 0.34 nM and the IC50 [31] was 8 to 15 nM. It also gave an IC50 [32] of 0.05 to 1 nM.
